From PMC6754429, “Structure of full-length wild-type human phenylalanine hydroxylase by small angle X-ray scattering reveals substrate-induced conformational stability” (Scientific Reports, 2019) come the findings set out here.

This series deals with the molecule itself. Description: SEC-SAXS; Shodex KW-404 column coupled to SAXS (B21, Diamond); 12 mg/mL hPAH injected; 20 mM Hepes pH 7.0, 200 mM NaCl; 20 °C; no L-Phe (hPAH^free); molecular mass from the Porod volume. In general terms: In gel filtration, larger molecules generally elute earlier.

B1: Recombinant full-length wild-type human phenylalanine hydroxylase (His6-hPAH) (enzyme, UniProt P00439 1-452, looked up)
chain: MSTAVLENPGLGRKLSDFGQETSYIEDNCNQNGAISLIFSLKEEVGALAKVLRLFEENDVNLTHIESRPSRLKKDEYEFFTHLDKRSLPALTNIIKILRHDIGATVHELSRDKKKDTVPWFPRTIQELDRFANQILSYGAELDADHPGFKDPVYRARRKQFADIAYNYRHGQPIPRVEYMEEEKKTWGTVFKTLKSLYKTHACYEYNHIFPLLEKYCGFHEDNIPQLEDVSQFLQTCTGFRLRPVAGLLSSRDFLGGLAFRVFHCTQYIRHGSKPMYTPEPDICHELLGHVPLFSDRSFAQFSQEIGLASLGAPDEYIEKLATIYWFTVEFGLCKQGDSIKAYGAGLLSSFGELQYCLSEKPKLLPLELEKTAIQNYTVTEFQPLYYVAESFNDAKEKVRNFAATIPRPFSVRYDPYTQRIEVLDNTQQLKILADSINSEIGILCSALQKIK
notes: human phenylalanine hydroxylase, full-length wild type; The same protein was measured without L-Phe (hPAH^free) and with 1 mM L-Phe (hPAH^Phe); also called hPAH^free; hPAH^Phe; source: E. coli Top10 (pTrcHis-hPAH plasmid), purified (Ni-NTA; PD-10 into SEC buffer, then the beamline SEC column); not shown: His6 (with a 26-amino acid linker), N-terminal, kept
What is called stoichiometry N is the number of molecules, sites or subunits per partner or assembly. As for B1, the “stoichiometry N” value worked out at 4.
